Assay results taken from patent US20060024297A1 (published 2006).
Each block holds one binder with its values, some of them ahead of it.

Tests used:
[1] = target: T1, human Tie1, full length, V5-tagged (pcDNA3-Tie1-V5), in transiently transfected COS1 cells (human, UniProt P35590 25-1138); assay: Western blot, Tie1-V5-transfected COS1
T1 construct: it is not expressly tied to the pcDNA3-Tie1-V5 construct; also called Tie1-transfected; transfected Tie1
Experimental: (§1) COS1 cells were transfected with pcDNA3-Tie1-V5 (1 μg DNA per 10 cm cell culture plate) using FUGENE 6 (Roche) according to manufacturer's instruction and incubated for 48 h before stimulation. For immunoprecipitation, Tie1 transfected cells and HMVEC cells were lysed in DOC-RIPA lysis buffer (50 mM Tris-HCl pH 8.0, 150 mM NaCl, 1% Triton-X-100, 0.1% SDS, 1% DOC, 10 mM EDTA) supplemented with aprotinin, leupeptin, PMSF and sodium vanadate. Immunoprecipitation was carried out from equal amount of cell lysates by incubating with polyclonal anti-human Tie1 antibodies (R&D), monoclonal anti-V5 antibodies (Invitrogen) or altogether 23 anti-Tie1 antibodies (1μg/ml) for 1 to 2 h followed by incubation with protein G-Sepharose (Amersham Pharmacia Biotech AB) for 1 h. The immunoprecipitates were washed twice with PBS-T and twice with PBS, followed by elution with the Laemmli buffer and separation in 8% SDS-PAGE. The blots were probed with the 23 anti-Tie1 antibodies (5 μg/ml) and subsequently anti-human Fc antibodies conjugated with HRP.
(§2) Next, to find out if the anti-Tie1 antibodies recognize Tie1 in living cells, those cells were studied by immunofluorescence staining.

[2] = target: T2, endogenous human Tie1 of primary human endothelial cells (HDMEC/HDMVEC, HUVEC) and human tissues (human, UniProt P35590 25-1138); assay: Western blot, HDMEC
T2 construct: also called endogenous Tie1; Tie-1 in HUVEC
Experimental: as §1, §2

[3] = target: T3, recombinant human Tie1-Fc (Tie1 extracellular domain fused to human Fc) (human, UniProt P35590 25-759); assay: BIAcore, Fab over biotinylated human Tie1-Fc on streptavidin chip, 1:1 fit
T3 construct: also called Tie-1 Fc Human; not shown: human Fc
T3 sequence: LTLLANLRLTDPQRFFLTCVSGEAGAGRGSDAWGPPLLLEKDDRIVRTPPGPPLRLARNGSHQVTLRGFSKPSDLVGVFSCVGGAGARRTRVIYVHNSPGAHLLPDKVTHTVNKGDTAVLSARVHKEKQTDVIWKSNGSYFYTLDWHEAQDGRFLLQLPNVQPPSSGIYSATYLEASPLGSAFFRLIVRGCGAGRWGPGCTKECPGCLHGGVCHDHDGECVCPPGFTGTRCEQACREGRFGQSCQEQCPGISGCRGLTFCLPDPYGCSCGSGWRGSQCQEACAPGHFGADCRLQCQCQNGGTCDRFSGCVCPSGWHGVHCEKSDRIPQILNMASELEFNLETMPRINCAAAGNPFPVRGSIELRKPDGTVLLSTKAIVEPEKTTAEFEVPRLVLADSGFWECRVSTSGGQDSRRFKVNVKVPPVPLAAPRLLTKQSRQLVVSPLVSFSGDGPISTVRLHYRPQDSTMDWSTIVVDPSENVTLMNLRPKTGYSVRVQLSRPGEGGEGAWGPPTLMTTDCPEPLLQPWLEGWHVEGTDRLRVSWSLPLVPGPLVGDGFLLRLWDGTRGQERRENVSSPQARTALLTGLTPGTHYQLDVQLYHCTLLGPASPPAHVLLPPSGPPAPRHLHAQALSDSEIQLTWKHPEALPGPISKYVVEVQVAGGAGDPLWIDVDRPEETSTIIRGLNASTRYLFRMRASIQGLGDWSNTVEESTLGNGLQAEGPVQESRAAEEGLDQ
Experimental: Recombinant purified human Tie1-Fc antigen (Stock 2.45 mg/ml) was biotinylated using the EZ-link Sulfo-NHS-SS-Biotin (Pierce, Cat. 21331). The reaction was performed for 2 hours on ice in 50 mM sodium carbonate buffer, pH 9.6, in the presence of a 5-fold molar excess of biotinylating agent and was stopped by the addition of Tris-HCl, pH 7.5 (50 mM final concentration) followed by a 1-hour incubation on ice. Samples were then dialyzed against PBS. The antigen was then diluted 1/100 fold in HBS and was then captured onto a streptavidin chip. This was coated to a density of 830RU (resonance units). All analysis was performed in HBS buffer. […] Serial dilutions were made of each Fab preparation to obtain 10 nM, 5 nM, 2.5 nM, and 1.25 nM solutions. For the association phase samples were injected at 30 μl/min for 4 minutes using kinject program. This was followed by a 10 minutes dissociation phase, any remaining sample was stripped from the Tie-1 Fc surface at a flow of 50 μl/min with a single injection of 5 mM NaOH+1M NaCl for 18 seconds. All samples were run and analyzed in duplicate.
(§3) Sensorgrams were analyzed using the simultaneous ka/kd fitting program with 1:1 model in the BIAEVALUATION™ software 3.1.

[4] = target: T4, recombinant mouse Tie1-Fc (mouse, UniProt Q06806 23-755, limits assumed); assay: BIAcore, Fab over biotinylated mouse Tie1-Fc on streptavidin chip, 1:1 fit
T4 construct: also called Tie-1 Fc Mouse; not shown: Fc
T4 sequence (looked up): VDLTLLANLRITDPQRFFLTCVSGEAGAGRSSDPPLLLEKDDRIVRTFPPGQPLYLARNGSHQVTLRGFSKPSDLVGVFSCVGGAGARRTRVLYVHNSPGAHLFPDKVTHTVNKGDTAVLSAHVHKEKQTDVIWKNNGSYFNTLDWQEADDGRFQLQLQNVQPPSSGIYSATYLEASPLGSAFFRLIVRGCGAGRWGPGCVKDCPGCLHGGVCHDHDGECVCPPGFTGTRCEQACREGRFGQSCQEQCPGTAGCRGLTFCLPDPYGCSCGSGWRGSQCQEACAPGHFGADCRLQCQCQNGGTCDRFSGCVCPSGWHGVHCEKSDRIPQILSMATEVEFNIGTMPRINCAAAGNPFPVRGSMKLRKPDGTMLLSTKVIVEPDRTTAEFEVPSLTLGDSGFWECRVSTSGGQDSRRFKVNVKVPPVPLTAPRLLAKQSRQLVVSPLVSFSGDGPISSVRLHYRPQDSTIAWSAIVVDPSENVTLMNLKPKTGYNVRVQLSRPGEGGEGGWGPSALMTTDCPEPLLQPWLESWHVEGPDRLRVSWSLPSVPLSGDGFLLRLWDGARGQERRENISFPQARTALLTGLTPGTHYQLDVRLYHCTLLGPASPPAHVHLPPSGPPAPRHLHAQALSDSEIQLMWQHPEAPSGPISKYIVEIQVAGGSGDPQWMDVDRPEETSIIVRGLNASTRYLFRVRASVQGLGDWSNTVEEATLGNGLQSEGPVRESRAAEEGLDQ
Experimental: Mouse Tie 1-Fc antigen (0.5 mg/ml stock) was biotinylated using established procedures and after dilution 1/100 fold in HBS this was then used for capturing to a streptavidin chip. This was coated to a resonance value of 740RU. All analysis was performed in HBS buffer. […] Serial dilutions were made of each Fab preparation to obtain 10 nM, 5 nM, 2.5 nM, and 1.25 nM. For the association phase samples were injected at 30 μl/min for 4 minutes using kinject program. This was followed by a 10 minutes dissociation phase, any remaining sample was stripped from the Tie-1 Fc surface at a flow of 50 μl/min with a single injection of 50 mM NaOH+1 M NaCl for 18 seconds. All samples were run and analyzed in duplicate.
as §3

[5] = target: T3, recombinant human Tie1-Fc (Tie1 …); assay: BIAcore, Fab over human Tie-1/Fc coupled to CM5 chip, 1:1 fit
Experimental: Recombinant human Tie-1/Fc was coated on a CM5 chip. The surface of the chip was first activated with a 7-minute pulse of 0.05 M NHS/0.2 M EDC, then Tie-1/Fc (2 μg/ml in 10 mM sodium acetate, pH 4.0) was run over the chip surface until 750 RUs were coated on the surface. All flow cells were subsequently deactivated with a 7-minute pulse of 1 M ethanolamine hydrochloride, pH 8.5. All further experiments were performed in HBS buffer.
A series of dilution (50, 25, 12.5, 6.25 and 3.125 nM) was prepared in HBS buffer. Samples were injected at 30 μl/min for 5.3 minutes using the KINJECT™ program. This was followed by a 10-minute dissociation phase, and the remaining Fab was stripped from the surface with a single 18-sec injection of 50 mM NaOH/1 M NaCl.
Sensorgrams were analyzed using the simultaneous ka/kd fitting program from the BIAEVALUATION™ software 3.1 assuming a 1:1 model.

binding result [1]: binds
binding result [2]: binds
B1: P-F4 IgG (anti-Tie1 isolate p-F4, human IgG1) (antibody, V domains shown)
VH: EVQLLESGGGLVQPGGSLRLSCAASGFTFSAYMMSWVRQAPGKGLEWVSSIYPSGGYTYYADSVKGRFTISRDNSKNTLYLQMNSLRAEDTAVYYCARGLRGGPDYWGQGTLVTVSS
VL: DIQMTQSPSTLSAYVGDSVTITCRASQSVRRSLAWYQQRPGKAPKSLIYKASTLETGVPPRFSGSGSGTEFTLTISSLQPEDSAIYYCQQYGSFPLTFGGG
notes: the VL entry stops within FR4

binding result [1]: binds
binding result [2]: binds
B2: P-C6 IgG (anti-Tie1 isolate p-C6, human IgG1) (antibody, V domains shown)
VH: EVQLLESGGGLVQPGGSLRLSCAASGFTFSHYGMTWVRQAPGKGLEWVSVISPSGGQTGYADSVKGRFTISRDNSKNTLYLQMNSLRAEDTAVYYCAGGGYAAFDYWGQGTLVTVSS
VL: DIQMTQSPATLSLSPGERATLSCRASQSVSSYLAWYQQKPGQAPRLLIYDASNRATGIPARFSGSGSGTDFTLTISSLEPEDFAVYYCQQRSNWPLTFGGG
notes: the VL entry stops within FR4

binding result [1]: binds
binding result [2]: binds
B3: P-F3 IgG (anti-Tie1 isolate p-F3, human IgG1) (antibody, V domains shown)
VH: EVQLLESGGGLVQPGGSLRLSCAASGFTFSMYGMGWVRQAPGKGLEWVSVISPSGGQTAYADSVKGRFTISRDNSKNTLYLQMNSLRAEDTAVYYCARVALLLGHAFDIWGQGTMVTVSS
VL: DIQMTQSPSTLSASLGDRVTITCRASESISRWLAWYQQKPGKAPKLLMYEASTLESGVPSRFTGTGSGTEFTLTISSLQPDDFATYYCQQRSNWPLTFGGG
notes: the VL entry stops within FR4

binding result [1]: binds
binding result [2]: binds
B4: P-G3 IgG (anti-Tie1 isolate p-G3, human IgG1) (antibody, V domains shown)
VH: EVQLLESGGGLVQPGGSLRLSCAASGFTFSHYMMVWVRQAPGKGLEWVSSIYPSGGWTYYADSVKGRFTISRDNSKNTLYLQMNSLRAEDTAVYYCARLDYGGNSAYFDYWGQGTLVTVSS
VL: QSVLTQPHSVSASPGKTVTISCTRSSGNIASNFVQWYQQRPGSVPTTVIYEDDRRPSGVPDRFSGSIDSSSNSAFLSISGLKTEDEADYYCQSHDRTTRAWVFGGGTKL
notes: lambda VL entry stops within FR4

Kd [3]: 3.4 nM
koff [3]: 0.00102 s⁻¹
kon [3]: 300000 M⁻¹ s⁻¹
Kd [4]: 3.1 nM
koff [4]: 0.00104 s⁻¹
kon [4]: 340000 M⁻¹ s⁻¹
B5: germlined E3 Fab (light chain framework regions germlined to DPK4; heavy chain as parental) (Fab, V domains shown)
VH: EVQLLESGGGLVQPGGSLRLSCAASGFTFSMYGMVWVRQAPGKGLEWVSVISPSGGNTGYADSVKGRFTISRDNSKNTLYLQVNSLRAEDTAVYYCARAPRGYSYGYYYWGQGTLVTVSS
VL: DIQMTQSPSSLSASVGDRVTITCRASQGIGHYLAWYQQKPGKVPKLLIYTASTLQSGVPSRFSGSGSGTDFTLTISSLQPEDVATYYCQQFNSYPHTFGQGTRLEIK
notes: also called germlined Fab E3; E3 germlined

Kd [3]: 2 nM
koff [3]: 0.00061 s⁻¹
kon [3]: 300000 M⁻¹ s⁻¹
Kd [4]: 3.9 nM
koff [4]: 0.00095 s⁻¹
kon [4]: 246000 M⁻¹ s⁻¹
Kd [5]: 12 nM
koff [5]: 0.00105 s⁻¹
kon [5]: 88100 M⁻¹ s⁻¹
B6: E3 Fab (parental, soluble Fab) (Fab, V domains shown)
VH: EVQLLESGGGLVQPGGSLRLSCAASGFTFSMYGMVWVRQAPGKGLEWVSVISPSGGNTGYADSVKGRFTISRDNSKNTLYLQVNSLRAEDTAVYYCARAPRGYSYGYYYWGQGTLVTVSS
VL: DIQMTQSPLSLSASVGDRVTITCRASQGIGHYLAWYQQKPGKVPKLLIYTASTLQSGVPSRFSGSGSGTDFTLTINSLQPEDVATYYCQQFNSYPHTFGQGTRLDIK
notes: also called parental E3 Fab; parental Fab E3

Kd [5]: 7 nM
koff [5]: 0.00101 s⁻¹
kon [5]: 136000 M⁻¹ s⁻¹
B7: E3b Fab (germlined heavy chain and germlined light chain of E3) (Fab, V domains shown)
VH: EVQLLESGGGLVQPGGSLRLSCAASGFTFSMYGMVWVRQAPGKGLEWVSVISPSGGNTGYADSVKGRFTISRDNSKNTLYLQMNSLRAEDTAVYYCARAPRGYSYGYYYWGQGTLVTVSS
VL: DIQMTQSPSSLSASVGDRVTITCRASQGIGHYLAWYQQKPGKVPKLLIYTASTLQSGVPSRFSGSGSGTDFTLTISSLQPEDVATYYCQQFNSYPHTFGQGTRLEIK
notes: also called Fab E3b; germlined (E3b)

binding result [1]: binds
binding result [2]: binds
B8: P-D12 IgG (anti-Tie1 isolate p-D12, human IgG1) (antibody, V domains shown)
VH: EVQLLESGGGLVQPGGSLRLSCAASGFTFSGYGMHWVRQAPGKGLEWVSVISPSGGQTSYADSVKGRFTISRDNSKNTLYLQMNSLRAEDTAVYYCARDRQYYYGSGSLDYWGQGTLVTVSS
VL: DIQMTQSPSSLSASVGDRVTVTCRASQSISSYLNWYQQKPGKAPKLLIYAASSLQSGVPSRFSGGGSGTDFTLTISSLQPEDFATYFCLQDYKYPWTFGQG
notes: the VL entry stops within FR4
